Consider 37 molecules from paper PMC5538626 (EMBO Reports, 2017).

Ends that are not written are not given here.

Common to all, as to assay: ELISA; called peptide array: biotinylated peptides immobilised on streptavidin-coated 96-well plates; 1 μM His6-mATG8 in PBS, 0.1% Tween-20, 1% BSA, 1 h, 8°C; anti-His-HRP, TMB, absorbance at 450 nm
Settings in all cases: both partners purified

For one assay, the target named is T1, 6xHis‐tagged GABARAP (human, UniProt O95166 1-117).
T1 construct: GABARAP, human; also called His6‐GABARAP; source: E. coli, isolated

In the next assay the target is 6xHis‐tagged LC3B (human, UniProt Q9GZQ8 1-120).
The next assay has as its target T2, 6xHis‐tagged GABARAP‐L2 (human, UniProt P60520 1-117).
T2 construct: GABARAP-L2/GATE-16, human; also called His6‐GABARAP‐L2; GATE‐16; source: E. coli, isolated

The next assay has as its target T3, 6xHis‐tagged LC3C (human, UniProt Q9BXW4 1-126).
T3 construct: LC3C, human; also called His6‐LC3C; source: E. coli, isolated

The target of another assay is T4, 6xHis‐tagged GABARAP‐L1 (human, UniProt Q9H0R8 1-117).
T4 construct: GABARAP-L1, human; also called His6‐GABARAP‐L1; source: E. coli, isolated

The target in a further assay is T5, 6xHis‐tagged LC3A (human, UniProt Q9H492 1-121).
T5 construct: LC3A (MAP1LC3A), human; also called His6‐LC3A; MAP1LC3A; source: E. coli, isolated

T2 sequence (P60520 whole entry): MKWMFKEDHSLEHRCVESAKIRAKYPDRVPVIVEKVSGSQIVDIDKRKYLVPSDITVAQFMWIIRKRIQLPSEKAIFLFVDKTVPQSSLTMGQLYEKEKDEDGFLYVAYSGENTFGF
T4 sequence (Q9H0R8 whole entry, looked up): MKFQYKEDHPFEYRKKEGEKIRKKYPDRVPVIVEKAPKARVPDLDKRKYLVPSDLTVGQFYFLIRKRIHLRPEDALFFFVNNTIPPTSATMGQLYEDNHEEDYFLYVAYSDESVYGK
T1 sequence (O95166 whole entry): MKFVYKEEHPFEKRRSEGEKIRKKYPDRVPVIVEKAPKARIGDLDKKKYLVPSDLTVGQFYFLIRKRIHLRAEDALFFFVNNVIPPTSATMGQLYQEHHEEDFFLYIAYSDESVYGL
T3 sequence (Q9BXW4 1-126): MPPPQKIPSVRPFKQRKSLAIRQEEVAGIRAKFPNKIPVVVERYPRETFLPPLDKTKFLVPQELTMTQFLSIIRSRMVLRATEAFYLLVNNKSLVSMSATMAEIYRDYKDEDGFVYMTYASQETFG

B1: TP53INP2/DOR LIR peptide (32–40), biotinylated (peptide)
peptide: VDGWLIIDL
modifications: also: biotinylated
notes: TP53INP2/DOR LIR; source: bought: JPT (biotinylated peptide)
Take B1: the binding result with 6xHis‐tagged GABARAP and with 6xHis‐tagged LC3B was “binds” throughout.

B2: ULK2 LIR peptide (350–358), biotinylated (peptide)
peptide: TDDFVLVPH
modifications: also: biotinylated
notes: ULK2 LIR; source: bought: JPT (biotinylated peptide)
Regarding B2, the binding result with 6xHis‐tagged GABARAP is recorded as “binds”.

B3: MAP15K LIR peptide (337–345), biotinylated (peptide)
peptide: SRVYQMILE
modifications: also: biotinylated
notes: printed as MAP15K; source: bought: JPT (biotinylated peptide)
Regarding B3, the binding result with 6xHis‐tagged GABARAP and with 6xHis‐tagged LC3B was “binds” in each case.

B4: STBD1 LIR peptide (200–208), biotinylated (peptide)
peptide: HEEWEMVPR
modifications: also: biotinylated
notes: STBD1 LIR; source: bought: JPT (biotinylated peptide)
On to B4, for which the binding result in the assay with 6xHis‐tagged GABARAP is given as “binds”.

B5: PLEKHM1‐LIR V636A peptide (biotinylated 9-mer) (peptide, UniProt Q9Y4G2 632-640, looked up)
peptide: EDEWANVQY
modifications: also: biotinylated
notes: PLEKHM1 LIR; source: bought: JPT (biotinylated peptide)
Regarding B5, the binding result in the assay with 6xHis‐tagged GABARAP‐L2 and with 6xHis‐tagged GABARAP was “binds” each time.

B6: NDP52 LIR peptide (130–138), biotinylated (peptide)
peptide: EEDILVVTT
modifications: also: biotinylated
notes: NDP52 LIR; source: bought: JPT (biotinylated peptide)
Consider B6, for which the binding result in the assay with 6xHis‐tagged GABARAP and in the assay with 6xHis‐tagged LC3B was “binds” each time.

B7: TP53INP1 LIR peptide (28–36), biotinylated (peptide)
peptide: DDEWILVDF
modifications: also: biotinylated
notes: TP53INP1 LIR; source: bought: JPT (biotinylated peptide)
B7: the binding result with 6xHis‐tagged GABARAP and with 6xHis‐tagged LC3B was “binds” throughout.

B8: TBC1D5 (LIR1) peptide (55–63), biotinylated (peptide)
peptide: RKEWEELFV
modifications: also: biotinylated
notes: TBC1D5 LIR1; source: bought: JPT (biotinylated peptide)
For the molecule B8, the binding result with 6xHis‐tagged GABARAP is reported as “binds”.

B9: PLEKHM1‐LIR WT peptide (EDEWVNVQY), biotinylated (peptide)
peptide: EDEWVNVQY
modifications: also: biotinylated
notes: PLEKHM1 LIR; also called PLEKHM1 LIR 632–640; source: bought: JPT (biotinylated peptide)
For the molecule B9, the binding result in the assay with 6xHis‐tagged LC3C, with 6xHis‐tagged GABARAP‐L2, with 6xHis‐tagged GABARAP, with 6xHis‐tagged GABARAP‐L1, in the assay with 6xHis‐tagged LC3A and in the assay with 6xHis‐tagged LC3B was “binds” in each case.

B10: Tax1BP1 LIR peptide (137–145), biotinylated (peptide)
peptide: NSDMLVVTT
modifications: also: biotinylated
notes: Tax1BP1 LIR; source: bought: JPT (biotinylated peptide)
On to B10, for which the binding result with 6xHis‐tagged GABARAP and in the assay with 6xHis‐tagged LC3B was “binds” each time.

B11: Clathrin HC1 LIR peptide (511–519), biotinylated (peptide)
peptide: TPDWIFLLR
modifications: also: biotinylated
notes: Clathrin HC1 LIR; source: bought: JPT (biotinylated peptide)
B11: in the assay with 6xHis‐tagged GABARAP, the binding result was “binds”.

B12: PLEKHM1‐LIR N637R peptide (biotinylated 9-mer) (peptide, UniProt Q9Y4G2 632-640, looked up)
peptide: EDEWVRVQY
modifications: also: biotinylated
notes: as for B5
Consider B12, for which the binding result with 6xHis‐tagged GABARAP‐L2, with 6xHis‐tagged GABARAP and with 6xHis‐tagged GABARAP‐L1 was “binds” throughout.

B13: FYCO1 LIR peptide (1277–1285), biotinylated (peptide)
peptide: DAVFDIITD
modifications: also: biotinylated
notes: FYCO1 LIR; source: bought: JPT (biotinylated peptide)
On to B13, for which the binding result in the assay with 6xHis‐tagged GABARAP and in the assay with 6xHis‐tagged LC3B was “binds” throughout.

B14: NBR1 LIR peptide (729–737), biotinylated (peptide)
peptide: SEDYIIILP
modifications: also: biotinylated
notes: NBR1 LIR; source: bought: JPT (biotinylated peptide)
Turning to B14, the binding result in the assay with 6xHis‐tagged GABARAP was “binds”.

B15: PLEKHM1‐LIR N637A peptide (biotinylated 9-mer) (peptide, UniProt Q9Y4G2 632-640, looked up)
peptide: EDEWVAVQY
modifications: also: biotinylated
notes: as for B5
B15: the binding result with 6xHis‐tagged GABARAP‐L2, in the assay with 6xHis‐tagged GABARAP and with 6xHis‐tagged GABARAP‐L1 was “binds” each time.

B16: FAM134B LIR peptide (452–460), biotinylated (peptide)
peptide: GDDFELLDQ
modifications: also: biotinylated
notes: FAM134B LIR; source: bought: JPT (biotinylated peptide)
Regarding B16, the binding result in the assay with 6xHis‐tagged GABARAP and with 6xHis‐tagged LC3B was “binds” throughout.

B17: PLEKHM1‐LIR N637G peptide (biotinylated 9-mer) (peptide, UniProt Q9Y4G2 632-640, looked up)
peptide: EDEWVGVQY
modifications: also: biotinylated
notes: as for B5
Regarding B17, the binding result with 6xHis‐tagged GABARAP‐L2, with 6xHis‐tagged GABARAP and with 6xHis‐tagged GABARAP‐L1 was “binds” each time.

B18: PLEKHM1‐LIR N637K peptide (biotinylated 9-mer) (peptide, UniProt Q9Y4G2 632-640, looked up)
peptide: EDEWVKVQY
modifications: also: biotinylated
notes: as for B5
Regarding B18, the binding result with 6xHis‐tagged GABARAP‐L2, with 6xHis‐tagged GABARAP and with 6xHis‐tagged GABARAP‐L1 was “binds” in each case.

B19: NIX/BNIPL3 LIR peptide (33–41), biotinylated (peptide)
peptide: NSSWVELPM
modifications: also: biotinylated
notes: NIX LIR; also called Nix/BNIP3L; source: bought: JPT (biotinylated peptide)
For the molecule B19, the binding result with 6xHis‐tagged GABARAP and with 6xHis‐tagged LC3B was “binds” in each case.

B20: β‐Catenin LIR peptide (501–509), biotinylated (peptide)
peptide: PSHWPLIKA
modifications: also: biotinylated
notes: β-Catenin LIR; source: bought: JPT (biotinylated peptide)
For B20, the binding result with 6xHis‐tagged GABARAP and with 6xHis‐tagged LC3B was “binds” in each case.

B21: c‐CBL LIR peptide (799–807), biotinylated (peptide)
peptide: SFGWLSLDG
modifications: also: biotinylated
notes: c-CBL LIR; source: bought: JPT (biotinylated peptide)
For B21, the binding result in the assay with 6xHis‐tagged GABARAP and with 6xHis‐tagged LC3B was “binds” in each case.

B22: TECPR2 LIR peptide (1403–1411), biotinylated (peptide)
peptide: DLEDEWEVI
modifications: also: biotinylated
notes: TECPR2 LIR; source: bought: JPT (biotinylated peptide)
For the molecule B22, the binding result in the assay with 6xHis‐tagged GABARAP and in the assay with 6xHis‐tagged LC3B was “binds” in each case.

B23: JMY LIR peptide (10–18), biotinylated (peptide)
peptide: ESDWVAVRP
modifications: also: biotinylated
notes: JMY LIR; source: bought: JPT (biotinylated peptide)
As for B23, in the assay with 6xHis‐tagged GABARAP, the binding result is “binds”.

B24: PLEKHM1‐LIR V638A peptide (biotinylated 9-mer) (peptide, UniProt Q9Y4G2 632-640, looked up)
peptide: EDEWVNAQY
modifications: also: biotinylated
notes: as for B5
In the case of B24, the binding result in the assay with 6xHis‐tagged GABARAP‐L2 and with 6xHis‐tagged GABARAP was “binds” each time.

B25: KTBD6 LIR peptide (665–673), biotinylated (peptide)
peptide: DDFWVRVAP
modifications: also: biotinylated
notes: KBTBD6 in the text; also called KBTBD6; KBTDB6; source: bought: JPT (biotinylated peptide)
Turning to B25, the binding result with 6xHis‐tagged GABARAP was “binds”.

B26: ATG4B LIR peptide (4–12), biotinylated (peptide)
peptide: TLTYDTLRF
modifications: also: biotinylated
notes: ATG4B LIR; source: bought: JPT (biotinylated peptide)
For the molecule B26, the binding result in the assay with 6xHis‐tagged GABARAP and with 6xHis‐tagged LC3B was “binds” each time.

B27: ULK1 LIR peptide (354–362), biotinylated (peptide)
peptide: TDDFVMVPA
modifications: also: biotinylated
notes: ULK1 LIR; source: bought: JPT (biotinylated peptide)
With B27, in the assay with 6xHis‐tagged GABARAP, the binding result was “binds”.

B28: FUNDC1 LIR peptide (printed positions 152–160), biotinylated (peptide)
peptide: DDSYEVLDL
modifications: also: biotinylated
notes: FUNDC1 LIR; source: bought: JPT (biotinylated peptide)
For the molecule B28, the binding result with 6xHis‐tagged LC3B is on record as “binds”.

B29: TBC1D25 LIR peptide (133–141), biotinylated (peptide)
peptide: LEDWDIISP
modifications: also: biotinylated
notes: TBC1D25 LIR; source: bought: JPT (biotinylated peptide)
Regarding B29, the binding result with 6xHis‐tagged GABARAP and with 6xHis‐tagged LC3B was “binds” throughout.

B30: Calreticulin LIR peptide (197–205), biotinylated (peptide)
peptide: EDDWDFLPP
modifications: also: biotinylated
notes: Calreticulin LIR; source: bought: JPT (biotinylated peptide)
Turning to B30, the binding result with 6xHis‐tagged GABARAP and with 6xHis‐tagged LC3B was “binds” in each case.

B31: OPTN LIR peptide (175–183), biotinylated (peptide)
peptide: EDSFVEIRM
modifications: also: biotinylated
notes: OPTN LIR; source: bought: JPT (biotinylated peptide)
As to B31, the binding result with 6xHis‐tagged GABARAP is given as “binds”.

B32: ATG13 LIR peptide (441–449), biotinylated (peptide)
peptide: HDDFVMIDF
modifications: also: biotinylated
notes: ATG13 LIR; source: bought: JPT (biotinylated peptide)
For the molecule B32, the binding result in the assay with 6xHis‐tagged GABARAP is given as “binds”.

B33: PLEKHM1‐LIR V636C peptide (biotinylated 9-mer) (peptide, UniProt Q9Y4G2 632-640, looked up)
peptide: EDEWCNVQY
modifications: also: biotinylated
notes: as for B5
B33: the binding result with 6xHis‐tagged LC3C, in the assay with 6xHis‐tagged GABARAP‐L2, with 6xHis‐tagged GABARAP, with 6xHis‐tagged GABARAP‐L1, with 6xHis‐tagged LC3A and with 6xHis‐tagged LC3B was “binds” each time.

B34: DVL2 LIR peptide (441–449), biotinylated (peptide)
peptide: DRMWLKITI
modifications: also: biotinylated
notes: DVL2 LIR; source: bought: JPT (biotinylated peptide)
For the molecule B34, the binding result with 6xHis‐tagged GABARAP and with 6xHis‐tagged LC3B was “binds” in each case.

B35: PLEKHM1‐LIR N637P peptide (biotinylated 9-mer) (peptide, UniProt Q9Y4G2 632-640, looked up)
peptide: EDEWVPVQY
modifications: also: biotinylated
notes: as for B5
With B35, the binding result in the assay with 6xHis‐tagged GABARAP‐L2, in the assay with 6xHis‐tagged GABARAP and with 6xHis‐tagged GABARAP‐L1 was “binds” throughout.

B36: FIP200 LIR peptide (699–707), biotinylated (peptide)
peptide: TFDFETIPH
modifications: also: biotinylated
notes: FIP200 LIR; source: bought: JPT (biotinylated peptide)
As to B36, the binding result in the assay with 6xHis‐tagged GABARAP and in the assay with 6xHis‐tagged LC3B was “binds” in each case.

B37: TBC1D5 (LIR2) peptide (785–793), biotinylated (peptide)
peptide: DSGFTIVSP
modifications: also: biotinylated
notes: TBC1D5 LIR2; source: bought: JPT (biotinylated peptide)
Turning to B37, the binding result with 6xHis‐tagged GABARAP and with 6xHis‐tagged LC3B was “binds” throughout.
